Broadly, the EC50 is the midpoint of the concentration-response curve. Read a high EC50 as a need for much substance.

These results are taken from patent US20250182853A1 (TOHOKU UNIVERSITY, published 2025).

The target in this test is T1, Galectin-3 (UniProt P17931 1-250, limits assumed).
T1 construct: Immobilized on magnetic particles for panning and on ELISA wells via NeutrAvidin; also called Gal-3; target Galectin-3
The experiment in a line: ELISA, eight 2-fold dilutions starting from 1.5 uM. On the technique in general: An ELISA detects its analyte on a solid surface through an enzyme-linked reagent.

Positions count from the first letter of the chain named.

T1 sequence (P17931 whole entry): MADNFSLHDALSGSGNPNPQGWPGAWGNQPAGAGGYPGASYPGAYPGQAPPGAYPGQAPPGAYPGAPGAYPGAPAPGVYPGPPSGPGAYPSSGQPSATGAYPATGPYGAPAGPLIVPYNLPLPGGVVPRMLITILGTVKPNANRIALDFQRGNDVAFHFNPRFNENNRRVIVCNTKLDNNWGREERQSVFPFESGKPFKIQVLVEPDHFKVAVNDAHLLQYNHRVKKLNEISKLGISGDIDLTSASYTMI

B1: 1E2 mutant (2u2f mutant from Cluster 1) (designed binder)
chain: AHKLFIGGLPVDYNDDQVKELLTSFGPLKAFNLVKDSATGLSKGYAFAEYVDINVTDQAIAGLNGNVCHLHTLLVQRASVGAKNADYKDDDDKLEHHHHHH
notes: Purified monomer from a pET22b vector in E. coli (IMAC, SEC); The tag is not described
Molecule B1 yielded an EC50 of 92.5 nM.

B2: 1H2 mutant (2u2f mutant from Cluster 1) (designed binder)
chain: B1 chain with N66S, V67G, C68S, H69R, L70I, H71R, T72A
notes: as for B1
On to B2, for which it took 79.9 nM to reach a half-maximal effect (EC50).

B3: 3B5 mutant (2u2f mutant from Cluster 3) (designed binder)
chain: B1 chain with V11A, Y13G, N14D, N66F, V67A, C68T, H69S, L70R, H71F, T72S
notes: as for B1
B3: the 50% effective concentration (EC50) is 277 nM.

B4: 4H5 mutant (2u2f mutant from Cluster 4) (designed binder)
chain: B1 chain with V11D, D12Y, N14G, N66R, V67F, C68Y, H69G, L70T, H71A
notes: as for B1
Molecule B4 had an EC50 of 201 nM.
